Earlier results on one molecule are cited in patent publication US9133245B2, “Cyclic lactadherin peptide mimetics and their uses” (TRUSTEES OF BOSTON COLLEGE, priority 2011, dated 2015).

The data set relates to PS. Particulars: without cofactors; cited from earlier work.

B1: Lactadherin: 47 kDa glycoprotein, natural PS-binding protein (protein, UniProt Q08431 24-387, looked up)
Lactadherin: LDICSKNPCHNGGLCEEISQEVRGDVFPSYTCTCLKGYAGNHCETKCVEPLGLENGNIANSQIAASSVRVTFLGLQHWVPELARLNRAGMVNAWTPSSNDDNPWIQVNLLRRMWVTGVVTQGASRLASHEYLKAFKVAYSLNGHEFDFIHDVNKKHKEFVGNWNKNAVHVNLFETPVEAQYVRLYPTSCHTACTLRFELLGCELNGCANPLGLKNNSIPDKQITASSSYKTWGLHLFSWNPSYARLDKQGNFNAWVAGSYGNDQWLQVDLGSSKEVTGIITQGARNFGSVQFVASYKVAYSNDSANWTEYQDPRTGSSKIFPGNWDNHSHKKNLFETPILARYVRILPVAWHNRIALRLELLGC
In the case of B1, the “affinity of binding to PS” value is on record as “nanomolar”.
